In paper PMC10516056:
Where “and” joins values, the source holds several entries; their conditions need not be identical. Equal entries are not always repeated.

Experiments:
[1] = target: SPARTA heterodimer (TIR-APAZ/short pAgo complex) from Crenotalea thermophila (Crenotalea thermophila); assay: mass photometry
[2] = target: SPARTA heterodimer (TIR-APAZ/short pAgo complex) from Crenotalea thermophila (Crenotalea thermophila); assay: cryo-EM structure

- stoichiometry N [1]: 2 and 4
- stoichiometry N [2]: 4
Substance: SPARTA heterodimer (TIR-APAZ/short pAgo complex) from Crenotalea thermophila
